This is an account of results in patent US5635615, “High affinity HIV nucleocapsid nucleic acid ligands” (NeXstar Pharmaceuticals, Inc.).

What all share (conditions): tags: processed NC, 55 aa, from pBH10, gift of Agouron Pharmaceutical; label: 5'-32P
The target in series [1] is T1, HIV-1 nucleocapsid p7 (NC) (Human immunodeficiency virus type 1 …, UniProt P03347 P03347:378-432). Briefly: filter; 10 mM NaOAc pH 5.3, 0.1 mM ZnCl2, 5 mM MgCl2, 100 mM NaCl, 37 C.
Experimental: Binding assays were done by adding 5 μl of HIV-1 p7 nucleocapsid protein, at the appropriate concentrations (i.e., ranging from 6×10^-10 to 5×10^-8), to 45 μl of binding buffer (10 mM NaOAc (pH 5.3), 2 mM 2-mercaptoethanol, 0.1 mM ZnCl_2, 5 mM MgCl_2, 100 mM NaCl) on ice, then adding 80,000 cpm of kinased RNA (<200 fmoles) in a volume of 3 to 4 μl. This mix was incubated at 37° C. for 20 minutes. The reactions were then passed over nitrocellulose filters, which were pre-equilibrated in the same buffer, and washed five times with one milliliter each time using a 50 mM Tris-Cl pH 7.5 solution. Filters were dried and counted in cocktail. The protein used in these experiments were frozen and thawed only once. Each binding curve consisted of seven points and each point is the average of duplicates.
The dissociation constants for 12 of the 14 RNA species were determined by nitrocellulose filter binding. These experiments were carried out in duplicates. All binding curves were done using γ-^32P labeled RNA in binding buffer containing 100 mM NaCl.
Series [2] has as its target T1, HIV-1 nucleocapsid p7 (NC). In words: inhibition; inhibition of NC-stimulated annealing of con+/con- DNA, 10 nM NC. How it is done: (§1) This buffer was used and the concentration of each oligo was reduced keeping their action time constant to find an oligo concentration that would give less than 10% duplex formation under these conditions. The conditions in the reaction used for inhibition assay was as follows. 400 pM each DNA oligo (con+/−) was mixed with 10 nM nucleocapsid for 6 minutes at 37° C. in binding buffer containing 200 mM NaCl in a reaction volume of 30 µl. After this time, reactions were stopped by placing on ice and loaded on gel after 2 minutes. Gels were run at 250 volts for 3.5 hours. In reactions where random RNA was added as inhibitor, the concentrations range from 6500 nM to 9 nM. Where selected RNAs were used, the range was 720 nM to 0.11 nM.

The target of series [3] is T1, HIV-1 nucleocapsid p7 (NC). Briefly: inhibition; about 50% inhibition of NC-stimulated annealing of con+/con- DNA, 10 nM NC. How it is done: as §1

B1: 400-23 (ssRNA)
RNA: GGGAGCUCAGAAUAAACGCUCAACUGAGAACUCUCCCGCUCGCAUUAUUAACCUUCGACAUGAGGCCCGGAUCCGGC
Broadly, the Kd is the free concentration of one partner at which half of the binding sites on the other are occupied at equilibrium, for simple one-to-one binding. As a reminder, the Ki is the equilibrium dissociation constant of an inhibitor or competing ligand from its target. The molecule B1 came in with a Kd in series [1] of 6 nM. In series [2], the Ki came to 3 nM.

B2: 400-17 (ssRNA)
RNA: GGGAGCUCAGAAUAAACGCUCAAGUUCUGAGAACUCUCCCCAUUCUAGUGUGCUUCGACAUGAGGCCCGGAUCCGGC
As a reminder, the IC50 is the concentration that inhibits the measured activity by half. B2: binding in series [1] was characterised by a dissociation constant (Kd) of 2 nM. For the same molecule, the IC50 in series [3] was roughly 0.5 nM.
